Key:
[1] = system: (MCA)-His-Gln-Ser-Arg-Pro-Trp-Gly-Leu-Gly-Ser-Lys (DNP)-D-Arg (SEQ ID NO: 660)
[2] = system: (MCA)-His-Gln-Ser-Arg-Ser-Ala-Ile-Ala-Leu-Gly-Ser-Lys (DNP)-D-Arg (SEQ ID NO: 655)
[3] = system: (MCA)-His-Gln-Ser-Arg-Ser-Ala-Ile-Ala-Leu-X1-Gly-Lys (DNP)-D-Arg (SEQ ID NO: 654) where X1 is Y
[4] = system: (MCA)-His-Gln-Ser-Arg-Ser-Ala-Ile-Ala-Leu-X1-X2-Lys (DNP)-D-Arg (SEQ ID NO: 653) where X1 is Y and X2 is A
[5] = system: (MCA)-His-Gln-Ser-Arg-Ser-Gly-Pro-Trp-Gly-Leu-X1-Lys (DNP)-D-Arg (SEQ ID NO: 659) where X1 is absent
[6] = system: (MCA)-His-Gln-Ser-Arg-Ser-Pro-Trp-Gly-Gly-Ser-Lys (DNP)-D-Arg (SEQ ID NO: 661)
[7] = system: (MCA)-His-Gln-Ser-Arg-Ser-Pro-Trp-Gly-Leu-Gly-Lys (DNP)-D-Arg (SEQ ID NO: 665)
[8] = system: (MCA)-Ser-Pro-Trp-Gly-Leu-His-Gln-Ser-Arg-Gly-Lys (DNP)-D-Arg (SEQ ID NO: 663)
[9] = system: (MCA)-Ser-Pro-Trp-Gly-Leu-His-Gln-Ser-Arg-Ser-Lys (DNP)-D-Arg (SEQ ID NO: 657)
[10] = system: (MCA)-Ser-Pro-Trp-Gly-Leu-His-Gln-Ser-Lys-Ser-Lys (DNP)-D-Arg (SEQ ID NO: 664)
[11] = system: D-Arg-Lys (DNP)-Ala-Ile-Ala-Leu-His-Gln-Ser-Arg-Ser-Lys (MCA)-D-Arg (SEQ ID NO: 658)
[12] = system: peptide probe with CM AQSRSGPWGLL (SEQ ID NO: 641)
[13] = system: peptide probe with CM HASRSGPWGLL (SEQ ID NO: 642)
[14] = system: peptide probe with CM HQARSGPWGLL (SEQ ID NO: 643)
[15] = system: peptide probe with CM HQSASGPWGLL (SEQ ID NO: 644)
[16] = system: peptide probe with CM HQSRAGPWGLL (SEQ ID NO: 645)
[17] = system: peptide probe with CM HQSRSAPWGLL (SEQ ID NO: 646)
[18] = system: peptide probe with CM HQSRSGAWGLL (SEQ ID NO: 647)
[19] = system: peptide probe with CM HQSRSGPAGLL (SEQ ID NO: 639)
[20] = system: peptide probe with CM HQSRSGPWALL (SEQ ID NO: 648)
[21] = system: peptide probe with CM HQSRSGPWGAL (SEQ ID NO: 649)
[22] = system: peptide probe with CM HQSRSGPWGLA (SEQ ID NO: 650)

MMP9, sequence (chain, as listed by the source): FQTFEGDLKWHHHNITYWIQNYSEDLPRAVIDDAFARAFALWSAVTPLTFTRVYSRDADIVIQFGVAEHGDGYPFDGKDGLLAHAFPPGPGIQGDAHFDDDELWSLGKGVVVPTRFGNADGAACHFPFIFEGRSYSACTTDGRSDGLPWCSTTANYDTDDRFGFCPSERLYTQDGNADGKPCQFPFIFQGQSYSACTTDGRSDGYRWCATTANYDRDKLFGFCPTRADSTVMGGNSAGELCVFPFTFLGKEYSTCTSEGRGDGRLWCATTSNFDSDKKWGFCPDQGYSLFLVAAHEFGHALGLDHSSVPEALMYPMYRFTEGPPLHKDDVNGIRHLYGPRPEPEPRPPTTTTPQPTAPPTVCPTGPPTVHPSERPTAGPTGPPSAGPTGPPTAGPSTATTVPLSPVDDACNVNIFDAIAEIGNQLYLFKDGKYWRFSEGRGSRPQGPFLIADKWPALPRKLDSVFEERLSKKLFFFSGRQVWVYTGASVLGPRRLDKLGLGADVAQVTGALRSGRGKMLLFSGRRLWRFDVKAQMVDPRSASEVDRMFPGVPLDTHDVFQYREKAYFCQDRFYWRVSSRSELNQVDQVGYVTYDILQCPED

**Q.** For MMP9, which Probe Cleavage (pM/s) [1] is on record?
**A.** Its Probe Cleavage (pM/s) is 9600 pM/s.

**Q.** And the Probe Cleavage (pM/s) [2]?
**A.** Its Probe Cleavage (pM/s) is 41.9 pM/s.

**Q.** And the Probe Cleavage (pM/s) [3]?
**A.** Its Probe Cleavage (pM/s) is 328 pM/s.

**Q.** And the Probe Cleavage Kcat/KM [3]?
**A.** Its Probe Cleavage Kcat/KM is 57000 M⁻¹ s⁻¹.

**Q.** What about the Probe Cleavage (pM/s) [4] of the same substance?
**A.** The Probe Cleavage (pM/s) was 255 pM/s.

**Q.** And the Probe Cleavage Kcat/KM [4]?
**A.** The Probe Cleavage Kcat/KM was 24000 M⁻¹ s⁻¹.

**Q.** And the Probe Cleavage (pM/s) [5]?
**A.** The Probe Cleavage (pM/s) was 705 pM/s.

**Q.** What about the Probe Cleavage (pM/s) [6] of the same substance?
**A.** The Probe Cleavage (pM/s) was 86.5 pM/s.

**Q.** What about the Probe Cleavage (pM/s) [7] of the same substance?
**A.** The Probe Cleavage (pM/s) was 372 pM/s.

**Q.** What about the Probe Cleavage Kcat/KM [7] of the same substance?
**A.** Its Probe Cleavage Kcat/KM is 11000 M⁻¹ s⁻¹.

**Q.** And the Probe Cleavage (pM/s) [8]?
**A.** The Probe Cleavage (pM/s) was 18600 pM/s.

**Q.** What about the Probe Cleavage (pM/s) [9] of the same substance?
**A.** Its Probe Cleavage (pM/s) is 5150 pM/s.

**Q.** And the Probe Cleavage Kcat/KM [9]?
**A.** The Probe Cleavage Kcat/KM was 120000 M⁻¹ s⁻¹.

**Q.** And the Probe Cleavage (pM/s) [10]?
**A.** The Probe Cleavage (pM/s) was 19300 pM/s.

**Q.** And the Probe Cleavage (pM/s) [11]?
**A.** The Probe Cleavage (pM/s) was 2550 pM/s.

**Q.** And the Probe Cleavage (pM/s) [12]?
**A.** Its Probe Cleavage (pM/s) is 7380 pM/s.

**Q.** What about the Probe Cleavage (pM/s) [13] of the same substance?
**A.** Its Probe Cleavage (pM/s) is 6470 pM/s.

**Q.** And the Probe Cleavage (pM/s) [14]?
**A.** The Probe Cleavage (pM/s) was 7430 pM/s.

**Q.** And the Probe Cleavage (pM/s) [15]?
**A.** Its Probe Cleavage (pM/s) is 5410 pM/s.

**Q.** What about the Probe Cleavage (pM/s) [16] of the same substance?
**A.** The Probe Cleavage (pM/s) was 7440 pM/s.

**Q.** And the Probe Cleavage (pM/s) [17]?
**A.** The Probe Cleavage (pM/s) was 10700 pM/s.

**Q.** What about the Probe Cleavage (pM/s) [18] of the same substance?
**A.** The Probe Cleavage (pM/s) was 436 pM/s.

**Q.** What about the Probe Cleavage (pM/s) [19] of the same substance?
**A.** The Probe Cleavage (pM/s) was 13900 pM/s.

**Q.** And the Probe Cleavage (pM/s) [20]?
**A.** The Probe Cleavage (pM/s) was 7500 pM/s.

**Q.** What about the Probe Cleavage (pM/s) [21] of the same substance?
**A.** Its Probe Cleavage (pM/s) is 5.9 pM/s.

**Q.** What about the Probe Cleavage (pM/s) [22] of the same substance?
**A.** The Probe Cleavage (pM/s) was 6810 pM/s.
